Results from patent US20210290727A1 (UNIVERSITY OF MARYLAND BALTIMORE, published 2021).

Tests used:
FLAG-tagged TSC2 = target: T1, FLAG-tagged TSC2 (UniProt P49815 1-1807, limits assumed); test: NanoSPD (nanoTRAP) filopodia co-accumulation in COS-7 cells
T1 construct: also called pRK7-FLAG-TSC2; not shown: FLAG tag

FLAG-tagged TSC1 = target: T2, FLAG-tagged TSC1 (UniProt Q92574 1-1164); test: as above
T2 construct: also called pRK7-FLAG-TSC1; not shown: FLAG tag
T2 sequence (looked up): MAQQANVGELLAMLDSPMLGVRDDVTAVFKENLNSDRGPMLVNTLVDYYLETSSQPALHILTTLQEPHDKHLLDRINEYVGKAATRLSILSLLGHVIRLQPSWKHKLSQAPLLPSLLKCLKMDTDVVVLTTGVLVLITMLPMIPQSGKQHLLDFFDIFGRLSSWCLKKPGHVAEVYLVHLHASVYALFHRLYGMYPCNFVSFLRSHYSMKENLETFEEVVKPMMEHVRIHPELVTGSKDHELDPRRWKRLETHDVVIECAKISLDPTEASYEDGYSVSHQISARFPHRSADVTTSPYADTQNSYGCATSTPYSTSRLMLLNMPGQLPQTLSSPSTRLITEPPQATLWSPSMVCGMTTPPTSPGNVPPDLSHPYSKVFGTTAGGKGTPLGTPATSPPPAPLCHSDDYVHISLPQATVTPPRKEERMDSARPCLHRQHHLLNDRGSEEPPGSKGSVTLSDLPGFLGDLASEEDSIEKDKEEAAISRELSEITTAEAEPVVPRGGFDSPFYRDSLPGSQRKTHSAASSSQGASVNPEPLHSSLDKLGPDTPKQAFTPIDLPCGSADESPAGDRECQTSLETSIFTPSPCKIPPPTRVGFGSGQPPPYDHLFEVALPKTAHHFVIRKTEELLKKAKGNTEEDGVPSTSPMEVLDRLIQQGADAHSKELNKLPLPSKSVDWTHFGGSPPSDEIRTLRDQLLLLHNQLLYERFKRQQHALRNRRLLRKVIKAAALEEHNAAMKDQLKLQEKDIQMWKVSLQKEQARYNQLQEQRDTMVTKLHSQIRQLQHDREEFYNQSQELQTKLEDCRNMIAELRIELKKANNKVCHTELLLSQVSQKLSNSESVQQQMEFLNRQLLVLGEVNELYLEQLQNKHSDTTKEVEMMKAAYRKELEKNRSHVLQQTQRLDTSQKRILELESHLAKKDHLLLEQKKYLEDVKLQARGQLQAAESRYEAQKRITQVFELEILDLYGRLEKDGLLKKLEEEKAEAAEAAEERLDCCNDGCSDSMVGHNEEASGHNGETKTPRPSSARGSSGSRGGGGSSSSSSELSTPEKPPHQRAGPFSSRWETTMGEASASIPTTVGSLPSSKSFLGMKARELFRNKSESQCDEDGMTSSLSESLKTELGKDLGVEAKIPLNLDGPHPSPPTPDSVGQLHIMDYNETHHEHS

T1 sequence (P49815 whole entry): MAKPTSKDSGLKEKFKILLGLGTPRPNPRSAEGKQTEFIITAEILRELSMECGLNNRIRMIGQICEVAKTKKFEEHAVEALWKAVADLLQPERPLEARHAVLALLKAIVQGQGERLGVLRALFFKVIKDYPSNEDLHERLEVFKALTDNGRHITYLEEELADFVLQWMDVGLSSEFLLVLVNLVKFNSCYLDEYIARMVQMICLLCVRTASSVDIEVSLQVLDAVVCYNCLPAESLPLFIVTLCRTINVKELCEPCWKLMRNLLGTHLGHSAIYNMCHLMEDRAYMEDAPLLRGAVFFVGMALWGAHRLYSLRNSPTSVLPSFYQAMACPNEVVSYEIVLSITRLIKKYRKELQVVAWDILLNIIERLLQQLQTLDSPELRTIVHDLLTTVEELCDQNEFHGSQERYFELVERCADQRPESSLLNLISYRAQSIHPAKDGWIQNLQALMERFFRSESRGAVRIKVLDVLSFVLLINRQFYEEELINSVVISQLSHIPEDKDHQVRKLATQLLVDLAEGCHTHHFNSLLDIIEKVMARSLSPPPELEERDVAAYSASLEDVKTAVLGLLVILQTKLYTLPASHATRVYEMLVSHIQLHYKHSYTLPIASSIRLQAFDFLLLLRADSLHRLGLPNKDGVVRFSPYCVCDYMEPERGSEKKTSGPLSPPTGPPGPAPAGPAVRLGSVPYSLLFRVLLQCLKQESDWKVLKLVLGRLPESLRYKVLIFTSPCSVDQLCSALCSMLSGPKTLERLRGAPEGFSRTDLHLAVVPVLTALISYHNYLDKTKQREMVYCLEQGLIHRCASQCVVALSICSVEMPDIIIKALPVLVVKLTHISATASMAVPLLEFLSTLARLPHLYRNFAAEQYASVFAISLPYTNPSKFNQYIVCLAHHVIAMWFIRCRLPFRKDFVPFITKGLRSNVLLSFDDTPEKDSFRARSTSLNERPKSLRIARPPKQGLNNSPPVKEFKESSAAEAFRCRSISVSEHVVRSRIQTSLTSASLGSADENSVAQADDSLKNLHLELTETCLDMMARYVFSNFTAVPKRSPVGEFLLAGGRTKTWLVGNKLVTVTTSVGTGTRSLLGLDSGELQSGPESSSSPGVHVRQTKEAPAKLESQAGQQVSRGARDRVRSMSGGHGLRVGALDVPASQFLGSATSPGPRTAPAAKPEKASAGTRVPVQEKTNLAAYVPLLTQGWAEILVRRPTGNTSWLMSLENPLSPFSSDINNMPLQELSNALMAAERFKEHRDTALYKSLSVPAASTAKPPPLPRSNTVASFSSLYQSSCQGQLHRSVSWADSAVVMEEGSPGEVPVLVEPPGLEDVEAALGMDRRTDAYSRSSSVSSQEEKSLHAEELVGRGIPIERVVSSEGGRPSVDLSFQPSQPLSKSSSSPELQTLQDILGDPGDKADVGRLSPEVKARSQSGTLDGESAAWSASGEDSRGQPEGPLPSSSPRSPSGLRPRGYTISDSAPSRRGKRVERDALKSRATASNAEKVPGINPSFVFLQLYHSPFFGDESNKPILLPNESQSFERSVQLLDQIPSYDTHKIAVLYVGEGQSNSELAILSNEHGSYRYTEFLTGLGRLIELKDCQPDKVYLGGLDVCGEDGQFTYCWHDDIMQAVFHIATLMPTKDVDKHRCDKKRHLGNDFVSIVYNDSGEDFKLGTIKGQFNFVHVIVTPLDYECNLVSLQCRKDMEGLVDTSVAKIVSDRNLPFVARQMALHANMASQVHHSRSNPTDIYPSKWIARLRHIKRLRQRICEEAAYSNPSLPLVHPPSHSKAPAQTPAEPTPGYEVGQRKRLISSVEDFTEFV

binding result (FLAG-tagged TSC2): no binding
binding result (FLAG-tagged TSC1): no binding
B1: CIB2-eGFP (other)
chain: MGNKQTIFTEEQLDNYQDCTFFNKKDILKLHSRFYELAPNLVPMDYRKSPIVHVPMSLIIQMPELRENPFKERIVAAFSEDGEGNLTFNDFVDMFSVLCESAPRELKANYAFKIYDFNTDNFICKEDLELTLARLTKSELDEEEVVLVCDKVIEEADLDGDGKLGFADFEDMIAKAPDFLSTFHIRI
notes: Expressed in COS-7 cells as bait of the NanoSPD (nanoTRAP) assay; also called hCIB2-eGFP; GFP-hCIB2; not shown: eGFP tag
